Where a chain is given by its changes, count along the chain named.
Columns and labels:
Assay in all cases: cell_activity
[1] = biological target: T1, CbbR A117V (Ralstonia eutropha) (UniProt P42722); conditions: beta-galactosidase, chemoheterotrophic; chemoautotrophic 6793
T1 sequence: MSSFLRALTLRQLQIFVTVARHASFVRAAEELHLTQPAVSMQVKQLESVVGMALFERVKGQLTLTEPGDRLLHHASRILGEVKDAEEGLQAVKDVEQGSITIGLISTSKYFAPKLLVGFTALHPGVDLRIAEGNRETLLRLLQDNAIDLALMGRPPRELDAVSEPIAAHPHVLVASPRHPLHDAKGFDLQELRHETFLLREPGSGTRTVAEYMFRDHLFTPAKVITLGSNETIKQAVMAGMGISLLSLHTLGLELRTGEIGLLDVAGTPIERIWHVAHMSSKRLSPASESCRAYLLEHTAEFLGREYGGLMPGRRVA

[2] = biological target: T2, CbbR L79F (Ralstonia eutropha) (UniProt P42722); conditions: beta-galactosidase, chemoheterotrophic; chemoautotrophic 6840
T2 sequence: T1 sequence with L79F, V117A

[3] = biological target: T3, CbbR G205D (Ralstonia eutropha) (UniProt P42722); conditions: beta-galactosidase, chemoheterotrophic; chemoautotrophic 2241
T3 sequence: T1 sequence with V117A, G205D

[4] = biological target: T4, CbbR P269S/T299I (Ralstonia eutropha) (UniProt P42722); conditions: beta-galactosidase, chemoheterotrophic; chemoautotrophic 3879
T4 sequence: T1 sequence with V117A, P269S, T299I

[5] = biological target: T5, CbbR E87K (Ralstonia eutropha) (UniProt P42722); conditions: beta-galactosidase, chemoheterotrophic; chemoautotrophic 5515
T5 sequence: T1 sequence with E87K, V117A

[6] = biological target: T6, CbbR E87K/G242S (Ralstonia eutropha) (UniProt P42722); conditions: beta-galactosidase, chemoheterotrophic; chemoautotrophic 4820
T6 sequence: T1 sequence with E87K, V117A, G242S

[7] = biological target: T7, CbbR D148N (Ralstonia eutropha) (UniProt P42722); conditions: beta-galactosidase, chemoheterotrophic; chemoautotrophic 6442
T7 sequence: T1 sequence with V117A, D148N

[8] = biological target: T8, CbbR T232I (Ralstonia eutropha) (UniProt P42722); conditions: beta-galactosidase, chemoheterotrophic; chemoautotrophic 5005
T8 sequence: T1 sequence with V117A, T232I

cbb promoter in lacZ reporter strain
activity [1]: 254 nmol/min/mg | activity [2]: 218 nmol/min/mg | activity [3]: 488 nmol/min/mg | activity [4]: 617 nmol/min/mg | activity [5]: 1600 nmol/min/mg | activity [6]: 303 nmol/min/mg | activity [7]: 343 nmol/min/mg | activity [8]: 303 nmol/min/mg

From patent US20140087436
